# In the Immune Epitope Database (IEDB):
# How the values were obtained:
# HLA-A*11:01 = test: IEDB peptide-MHC binding, purified MHC/direct/fluorescence; filed as Kd, often an IC50 or EC50 that approximates it; ≥ and ≤ were set here for values at or beyond the usual limits of such assays
# HLA-A*69:01 = test: as above
# HLA-B*27:05 = test: as above
# HLA-A*24:03 = test: as above
# HLA-B*07:02 = test: as above
# HLA-B*08:01 [1] = test: as above
# HLA-B*44:02 = test: as above
# HLA-B*15:01 [2] = test: as above
# HLA-A*03:01 = test: as above
# HLA-B*40:01 = test: as above
# HLA-A*01:01 = test: as above; details: source organism: Vibrio cholerae
# HLA-A*02:01 = test: as above
# HLA-A*26:01 = test: as above
# HLA-B*58:01 = test: as above
# HLA-B*08:01 [3] = test: IEDB peptide-MHC binding, purified MHC/competitive/radioactivity; filed as Kd, often an IC50 or EC50 that approximates it; ≥ and ≤ were set here for values at or beyond the usual limits of such assays
# HLA-B*15:01 [4] = test: as above; details: source organism: Vaccinia virus WR
# HLA-A*31:01 = test: IEDB peptide-MHC binding, purified MHC/direct/fluorescence; filed as Kd, often an IC50 or EC50 that approximates it; ≥ and ≤ were set here for values at or beyond the usual limits of such assays; details: source organism: Giardia intestinalis
# [5] = source organism: Vibrio cholerae
# [6] = source organism: Vaccinia virus WR
# [7] = source organism: Giardia intestinalis
# [8] = source organism: Dengue virus 4 Philippines/H241/1956
sequence,measurement,setting,value
SVMPAWQEK,Kd,HLA-A*11:01; [5],0.00501 µM
same,Kd,HLA-A*69:01; [5],≥ 20 µM
same,Kd,HLA-B*27:05; [5],≥ 20 µM
same,Kd,HLA-A*24:03; [5],10.3 µM
same,Kd,HLA-B*07:02; [5],≥ 20 µM
same,Kd,HLA-B*08:01 [1]; [5],≥ 20 µM
same,Kd,HLA-B*44:02; [5],≥ 20 µM
same,Kd,HLA-B*15:01 [2]; [5],≥ 20 µM
same,Kd,HLA-A*03:01; [5],0.0741 µM
same,Kd,HLA-B*40:01; [5],≥ 20 µM
same,Kd,HLA-A*01:01,≥ 20 µM
same,Kd,HLA-A*02:01; [5],≥ 20 µM
same,Kd,HLA-A*26:01; [5],≥ 20 µM
same,Kd,HLA-B*58:01; [5],≥ 20 µM
ANITHFCSF,Kd,HLA-B*08:01 [3]; [6],10.6 µM
same,Kd,HLA-B*15:01 [4],0.015 µM
WKTWGKAKML,Kd,HLA-B*08:01 [3]; source organism: Dengue virus 2 Jamaica/1409/1983,3.8 µM
GYTPGQQFY,Kd,HLA-A*11:01; [7],≥ 20 µM
same,Kd,HLA-A*69:01; [7],≥ 20 µM
same,Kd,HLA-B*27:05; [7],≥ 20 µM
same,Kd,HLA-A*24:03; [7],5.42 µM
same,Kd,HLA-B*07:02; [7],≥ 20 µM
same,Kd,HLA-B*08:01 [1]; [7],≥ 20 µM
same,Kd,HLA-B*44:02; [7],≥ 20 µM
same,Kd,HLA-B*15:01 [2]; [7],≥ 20 µM
same,Kd,HLA-A*03:01; [7],≥ 20 µM
same,Kd,HLA-B*40:01; [7],≥ 20 µM
same,Kd,HLA-A*31:01,≥ 20 µM
same,Kd,HLA-A*02:01; [7],≥ 20 µM
same,Kd,HLA-A*26:01; [7],≥ 20 µM
same,Kd,HLA-B*58:01; [7],≥ 20 µM
IQPQWIAASI,Kd,HLA-B*08:01 [3]; [8],0.858 µM
SAEMRLLSI,Kd,HLA-B*08:01 [3]; [6],0.0205 µM
SLLKNDVPL,Kd,HLA-B*08:01 [3]; source organism: Dengue virus 1 Brazil/97-11/1997,0.124 µM
LHRMDLGVPL,Kd,HLA-B*08:01 [3]; [8],1.01 µM
